Results from patent publication US20130244255A1, “ANTIBODIES DIRECTED TO GPNMB AND USES THEREOF” (priority 2006, published 2013).

Experiments:
KG-1 = assay: Clonogenic assay (methylcellulose) with 1.15.1-AE; type: cell-based, human
Experimental: (§1) Lymphoma or leukemia cell lines were mixed with methylcellulose base media (R&D Systems, USA) and in various concentrations of unconjugated and Auristatin E-conjugated 1.15.1 antibody before plating onto 6-well tissue culture plates (Becton Dickinson, Franklin Lakes, N.J., USA). […] Plates were incubated at 37° C. and examined daily. On days 14-18, colonies on the plates were counted.

SU-DHL-1 = assay: Clonogenic assay (methylcellulose) with 1.15.1-AE; type: cell-based, human
Experimental: as §1

SUP-M2 = assay: Clonogenic assay (methylcellulose) with 1.15.1-AE; type: cell-based, human
Experimental: as §1

DEL = assay: Clonogenic assay (methylcellulose) with 1.15.1-AE; type: cell-based, human
Experimental: as §1

Karpas 299 = assay: Clonogenic assay (methylcellulose) with 1.15.1-AE; type: cell-based, human
Experimental: as §1

PL-21 = assay: Clonogenic assay (methylcellulose) with 1.15.1-AE; type: cell-based, human
Experimental: as §1

MOLT-4 = assay: Clonogenic assay (methylcellulose) with 1.15.1-AE; type: cell-based, human
Experimental: as §1

CCRF-CEM = assay: Clonogenic assay (methylcellulose) with 1.15.1-AE; type: cell-based, human
Experimental: as §1

Jurkat = assay: Clonogenic assay (methylcellulose) with 1.15.1-AE; type: cell-based, human
Experimental: as §1

GPNMB = molecular target: T1, GPNMB (Homo sapiens, UniProt Q14956); assay: Binning of antibodies (Luminex competitive binding)
T1 construct: we cloned the human CG56972 extracellular domain (ECD; aa 23-480); made in house; host or cells: HEK 293 cells
T1 sequence (Q14956 23-492): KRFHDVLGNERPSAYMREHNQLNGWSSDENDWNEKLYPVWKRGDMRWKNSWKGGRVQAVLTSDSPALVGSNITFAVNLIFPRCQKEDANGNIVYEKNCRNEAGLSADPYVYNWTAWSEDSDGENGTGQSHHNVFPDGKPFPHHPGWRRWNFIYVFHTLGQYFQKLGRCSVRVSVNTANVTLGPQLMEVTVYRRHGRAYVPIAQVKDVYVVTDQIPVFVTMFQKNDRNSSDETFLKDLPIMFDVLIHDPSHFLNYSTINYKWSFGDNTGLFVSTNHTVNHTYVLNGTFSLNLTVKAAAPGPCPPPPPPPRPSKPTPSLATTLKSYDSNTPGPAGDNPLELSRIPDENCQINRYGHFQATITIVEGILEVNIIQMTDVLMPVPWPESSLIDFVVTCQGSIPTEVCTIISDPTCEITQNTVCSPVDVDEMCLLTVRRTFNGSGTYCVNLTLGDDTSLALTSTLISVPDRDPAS
Experimental: Certain antibodies, described herein were binned in accordance with the protocol described in U.S. Patent Application Publication No. 20030157730. M×hIgG conjugated beads are prepared for coupling to primary antibody. The volume of supernatant needed is calculated using the following formula: (n+10)×50 μL (where n=total number of samples on plate). Where the concentration is known, 0.5 μg/mL is used. Bead stock is gently vortexed, then diluted in supernatant to a concentration of 2500 of each bead per well or 0.5×10^5/mL and incubated on a shaker in the dark at RT overnight, or 2 hours if at a known concentration of 0.5 μg/mL. Following aspiration, 50 μL of each bead is added to each well of filter plate, then washed once by adding 100 μL/well wash buffer and aspirating. Antigen and controls are added to filter plate 50 μL/well then covered and allowed to incubate in the dark for 1 hour on shaker. Following a wash step, a secondary unknown antibody is added at 50 μL/well using the same dilution (or concentration if known) as is used for the primary antibody. The plates are then incubated in the dark for 2 hours at RT on shaker followed by a wash step. Next, 50 μL/well biotinylated m×hIgG diluted 1:500 is added and allowed to incubate in the dark for 1 hour on shaker at RT. Following a wash step, 50 μL/well Streptavidin-PE is added at 1:1000 and allowed to incubate in the dark for 15 minutes on shaker at RT. Following a wash step, each well is resuspended in 80 μL blocking buffer and read using Luminex. […] Competitive binding by antibodies from […] supports antibody specificity for similar or adjacent epitopes. Non competitive binding supports antibody specificity for unique epitopes.
Three bins were created to further test the binding of six anti-GPNMB antibodies. Bin 1 included GPNMB antibodies (1.2.1), (1.10.1), and (2.22.1). Bin 2 included GPNMB antibodies (2.3.1) and (1.15.1), and Bin 3 included GPNMB antibody (2.10.1). The results of the binning assays are provided below in Tables 8 and 9.

[1] = test system: CG56972-expressing cancer cell lines; assay: Growth of CG56972-expressing cells with naked CR011; type: cell-based, human; conditions: used directly, unconjugated

CR011-vcMMAE: CR011 conjugated to monomethyl auristatin E through a protease cleavable valine-citrulline linker; approx. 4 drugs per antibody
Clonogenic Assay with 1.15.1-AE IC50 in ng/mL (KG-1): No growth
Clonogenic Assay with 1.15.1-AE IC50 in ng/mL (SU-DHL-1): No effect
Clonogenic Assay with 1.15.1-AE IC50 in ng/mL (SUP-M2): No growth
Clonogenic Assay with 1.15.1-AE IC50 in ng/mL (DEL): No effect
Clonogenic Assay with 1.15.1-AE IC50 in ng/mL (Karpas 299): Inconclusive
Clonogenic Assay with 1.15.1-AE IC50 in ng/mL (PL-21): No effect
Clonogenic Assay with 1.15.1-AE IC50 in ng/mL (MOLT-4): No effect (repeating)
Clonogenic Assay with 1.15.1-AE IC50 in ng/mL (CCRF-CEM): No growth
Clonogenic Assay with 1.15.1-AE IC50 in ng/mL (Jurkat): No effect (repeating)

CR011: fully human monoclonal antibody that specifically binds to GPNMB; VH SEQ ID NO: 20, VL SEQ ID NO: 29
bin (GPNMB; Table 8): VIII
binning signal against antibody 1.1 (GPNMB; Table 8): 91
binning signal against antibody 1.11 (GPNMB; Table 8): 10
binning signal against antibody 1.12 (GPNMB; Table 8): 15
binning signal against antibody 1.13 (GPNMB; Table 8): 13
binning signal against antibody 1.15 (GPNMB; Table 8): 0
binning signal against antibody 1.2 (GPNMB; Table 8): 79
binning signal against antibody 1.3 (GPNMB; Table 8): 71
binning signal against antibody 1.7 (GPNMB; Table 8): 21
binning signal against antibody 1.8 (GPNMB; Table 8): 8
binning signal against antibody 1.9 (GPNMB; Table 8): 12
binning signal against antibody xV5 (GPNMB; Table 8): 89
binning signal against column antibody 1.5 (GPNMB; Table 8): 15
binning signal against antibody 1.1 (GPNMB; Table 9): 127
binning signal against antibody 1.11 (GPNMB; Table 9): 19
binning signal against antibody 1.12 (GPNMB; Table 9): 21
binning signal against antibody 1.13 (GPNMB; Table 9): 5
binning signal against antibody 1.15 (GPNMB; Table 9): 0
binning signal against antibody 1.2 (GPNMB; Table 9): 90
binning signal against antibody 1.3 (GPNMB; Table 9): 51
binning signal against antibody 1.7 (GPNMB; Table 9): 17
binning signal against antibody 1.8 (GPNMB; Table 9): 12
binning signal against antibody 1.9 (GPNMB; Table 9): 19
binning signal against antibody xV5 (GPNMB; Table 9): 125
binning signal against column antibody 1.5 (GPNMB; Table 9): −9
bin (GPNMB; Table 9, Cut-off = 90): VIII
bin (GPNMB; three bins of six anti-GPNMB antibodies): Bin 2
effect of naked antibody on CG56972 expressing cells (in words) [1]: did not inhibit the growth
effect of naked antibody on CG56972 expressing cells (in words) ([1]; listed as CR011 IgG2 mAb): no effect
